Data on 9 molecules can be found in patent US20120316071A1 (published 2012).

Residue numbers refer to the chain shown, from its start. Names may count otherwise.

For experiment [1], the target named is T1, Recombinant Human DLL4 (delta-like protein 4) (human, UniProt Q9NR61 27-529).
T1 construct: Bought recombinant protein (R&D Systems Cat#1506-D4/CF); also called rHuman DLL4; Delta-like 4
The experiment in a line: ECL (MSD) multispot assay; Fab 0.1 µM.

The target in experiment [2] is T1, Recombinant Human DLL4 (delta-like …). The experiment in a line: ECL (MSD) multispot assay; Fab 0.01 µM.
Experiment [3] has the same target. The experiment in a line: ECL (MSD) 96-well plate assay; plate coated with 30 µg/mL DLL4; Fab 0.02 µM.
The target is the same in experiment [4]. Description: ECL (MSD) 96-well plate assay; plate coated with 15 µg/mL DLL4; Fab 0.004 µM.
Experiment [5] addresses T2, rHuman CD44/Fc Chimera, CF (R&D Systems Cat#3660-CD) (human, UniProt P16070 21-220).
T2 construct: Bought recombinant Fc chimera; not shown: Fc of the bought R&D Systems chimera
Description: ECL Multispot (MSD), antigen spotted on plate, Fab 0.1 uM.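 Further: ratio compares each antigen's electrochemiluminescence to the blank within the same well, with a ratio of at least 4 counted as a binding Fab hit.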

Experiment [6] concerns the target T3, rHuman IGF-1 sR, CF (R&D Systems Cat#391-GR) (human, UniProt P08069 31-932).
T3 construct: Bought recombinant soluble receptor; also called insulin-like growth factor-1 soluble receptor
Described as above.

Experiment [7] concerns the target T4, rHuman P-Cadherin/Fc Chimera, CF (R&D Systems Cat#861-PC) (human, UniProt P22223 108-654).
T4 construct: Bought recombinant Fc chimera; not shown: Fc of the bought R&D Systems chimera
Described as above.

In experiment [8] the target is T5, rHuman Erythropoietin R/Fc Chimera, CF (R&D Systems Cat#963-ER) (human, UniProt P19235 25-250).
T5 construct: Bought recombinant Fc chimera; also called EPO R; EPO R/Fc; not shown: Fc of the bought R&D Systems chimera
T5 sequence (looked up): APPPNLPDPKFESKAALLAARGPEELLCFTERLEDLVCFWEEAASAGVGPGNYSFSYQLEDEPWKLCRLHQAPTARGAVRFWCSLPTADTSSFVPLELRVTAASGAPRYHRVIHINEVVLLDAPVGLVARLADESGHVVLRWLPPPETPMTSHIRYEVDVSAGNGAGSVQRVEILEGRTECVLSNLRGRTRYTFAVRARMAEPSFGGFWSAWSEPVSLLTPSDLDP
The description is as above.

Experiment [9] has as its target T6, Recombinant Human DLL4 (R&D Systems Cat#1506-D4/CF) (human, UniProt Q9NR61 27-524).
T6 construct: Bought recombinant protein; also called delta-like protein 4; rHuman DLL4
Described as above.

The target of experiment [10] is T7, rHuman ErbB2/Fc Chimera, CF (R&D Systems Cat#1129-ER) (human, UniProt P04626 23-652).
T7 construct: Bought recombinant Fc chimera; not shown: Fc of the bought R&D Systems chimera
Described as above.

Experiment [11] has as its target T8, rHuman EGF R/Fc Chimera, CF (R&D Systems Cat#344-ER) (human, UniProt P00533 25-645).
T8 construct: Bought recombinant Fc chimera; not shown: Fc of the bought R&D Systems chimera
The description is as above.

In experiment [12] the target is T9, rHuman HGF R/c-MET/Fc Chimera, CF (R&D Systems Cat#358-MT/CF) (human, UniProt P08581 25-932).
T9 construct: Bought recombinant Fc chimera; also called HGF R/Fc; not shown: Fc of the bought R&D Systems chimera
The description is as above.

Experiment [13] has as its target T10, rHuman Notch-1/Fc Chimera, CF (R&D Systems Cat#3647-TK) (human, UniProt P46531 19-526).
T10 construct: Bought recombinant Fc chimera; not shown: Fc of the bought R&D Systems chimera
Described as above.

Experiment [14] concerns the target T11, Recombinant Human DLL4 (R&D Systems Cat#1506-D4/CF) (human, UniProt Q9NR61 27-524).
T11 construct: Bought recombinant protein; also called delta-like protein 4; rHuman DLL4
Description: ECL (MSD) binding assay, immobilised DLL4, repeat experiment.

Experiment [15] addresses T12, rHuman Notch-1/Fc Chimera, CF (R&D Systems Cat#3647-TK) (human, UniProt P46531 19-526).
T12 construct: Bought recombinant protein
The experiment in a line: ECL Multispot (MSD) assay, antigen spotted on plate, 10 nM Fab.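 Further: purified Fab bound to antigen spots for 1 h at 20 °C, then TAG detection antibody, electrochemiluminescence compared with each well's blank, ratio of 4 or more marks a hit.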

Experiment [16] concerns the target T13, rHuman CD44/Fc Chimera, CF (R&D Systems Cat#3660-CD) (human, UniProt P16070 21-220).
T13 construct: Bought recombinant protein
The description is as above.

In experiment [17] the target is T14, rHuman IGF-1 sR (insulin-like growth factor-1 soluble receptor), CF (R&D Systems Cat#391-GR) (human, UniProt P08069 31-932).
T14 construct: Bought recombinant soluble receptor
The experiment is described as above.

Experiment [18] addresses T15, rHuman P-Cadherin/Fc Chimera, CF (R&D Systems Cat#861-PC) (human, UniProt P22223 108-654).
T15 construct: Bought recombinant protein
The experiment is described as above.

The target of experiment [19] is T16, rHuman Erythropoietin R/Fc Chimera, CF (R&D Systems Cat#963-ER) (human, UniProt P19235 25-250).
T16 construct: Bought recombinant protein; also called EPO R; EPO R/Fc
T16 sequence (looked up): T5 sequence (looked up)
The description is as above.

For experiment [20], the target named is T11, Recombinant Human DLL4 (R&D Systems …). Described as above.
Experiment [21] addresses T17, rHuman ErbB2/Fc Chimera, CF (R&D Systems Cat#1129-ER) (human, UniProt P04626 23-652).
T17 construct: Bought recombinant protein
Described as above.

The target in experiment [22] is T18, rHuman EGF R/Fc Chimera, CF (R&D Systems Cat#344-ER) (human, UniProt P00533 25-645).
T18 construct: Bought recombinant protein
Described as above.

Experiment [23] has as its target T19, rHuman HGF R/c-MET/Fc Chimera, CF (R&D Systems Cat#358-MT/CF) (human, UniProt P08581 25-932).
T19 construct: Bought recombinant protein; also called HGF R/Fc
Described as above.

For experiment [24], the target named is T11, Recombinant Human DLL4 (R&D Systems …). The experiment in a line: ECL (MSD) binding assay, DLL4 signal divided by blank, repeat experiment.
Experiment [25] has as its target T3, rHuman IGF-1 sR, CF (R&D Systems …). Description: ECL Multispot (MSD), antigen spotted on plate, Fab 0.01 uM.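 Further: electrochemiluminescence of each antigen spot divided by the blank of the same well, with a value of 4 or above scoring the Fab as a binding hit.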
In experiment [26] the target is T6, Recombinant Human DLL4 (R&D Systems …). The description is as above.
Experiment [27] has as its target T8, rHuman EGF R/Fc Chimera, CF (R&D …). The experiment is described as above.
The target in experiment [28] is T9, rHuman HGF R/c-MET/Fc Chimera, CF (R&D …). Described as above.

B1: Fab VH1-46_IGHD6-6*01_IGHJ1*01 S104F & L6_IGKJ1*01 (Fab, V domains shown)
VH: QVQLVQSGAEVKKPGASVKVSCKASGYTFTSYYMHWVRQAPGQGLEWMGIINPSGGSTSYAQKFQGRVTMTRDTSTSTVYMELSSLRSEDTAVYYCAREEYSSFSAEYFQHWGQGTLVTVSS
VL: not shown
notes: Fab; The VH was cloned into Plasmid A (CH1, His6 and Flag tags) and the kappa VL into Plasmid C (kappa CL); expressed in E. coli
Take B1: the results for the “ECL signal” value in experiment [1] and in [2] were 27100 and 4280, respectively. Further, the Signal/Noise in experiment [1] amounted to 195; in experiment [2], 15.3; in experiment [3], 76.5; in experiment [4], 134.

B2: Fab VH1-46_IGHD6-6*01_IGHJ1*01 & L6_IGKJ1*01 (Fab, V domains shown)
VH: B1 VH with F104S
VL: not shown
notes: Germline 'Hit' Fab made in E. coli; The heavy chain variable region was cloned into Plasmid A (CH1, His6 and Flag tags) and the kappa light chain variable region into Plasmid C (kappa CL); also called Parent; parental
Regarding B2, the ECL signal/noise ratio in [5] was 1.8; in experiment [6], 1.6; in experiment [7], 1.6; in experiment [8], 1.2; in experiment [9], 40.9; in experiment [10], 1.2. The values for the ECL signal/noise ratio in [11], in experiment [12] and in experiment [13] were 1.2, 1.3 and 1.7, respectively.

B3: Fab VH1-46_IGHD6-6*01_IGHJ1*01 S104H & L6_IGKJ1*01 (Fab, V domains shown)
VH: B1 VH with F104H
VL: not shown
notes: as for B1
Turning to B3, the entries for the “ECL signal” value in experiment [1] and in experiment [2] were 20100 and 4160, respectively. Further, the Signal/Noise in [1] is 88.3; in experiment [2], 27; in [3] it was 24.9; in [4] it was 79.2.

B4: Fab VH1-46_IGHD6-6*01_IGHJ1*01 S102A/S103P/S104F/H111F Y33A & L6_IGKJ1*01 (Fab, V domains shown)
VH: B1 VH with Y33A, S102A, S103P, H111F
VL: not shown
notes: Fab as for m1 (CH1 with His6/Flag tags, kappa CL); also called APFF Y33A
Turning to B4, the ECL signal in experiment [14] was 59500; in experiment [15], 244; in [16], 294; in experiment [17], 308; in experiment [18], 383; in experiment [19], 373. Besides, the ECL signal in experiment [20] came to 27000; in experiment [21] it was 394; in [22], 372; in experiment [23], 345. Further, the Signal/Noise in [24] turned out to be 225.

B5: Fab VH1-46_IGHD6-6*01_IGHJ1*01 S102A/S103P/S104F/H111F T28A & L6_IGKJ1*01 (Fab, V domains shown)
VH: B1 VH with T28A, S102A, S103P, H111F
VL: not shown
notes: Fab as for m1 (CH1 with His6/Flag tags, kappa CL); also called APFF T28A
On to B5, for which the ECL signal in experiment [14] stood at 181000; in [15] it was 432; in experiment [16] it was 471; in [17] it was 408; in experiment [18], 381; in [19] it was 480. For the same molecule, the ECL signal in experiment [20] amounted to 140000; in [21], 411; in experiment [22], 389; in experiment [23], 427. The Signal/Noise in [24] was found to be 404.

B6: Fab VH1-46_IGHD6-6*01_IGHJ1*01 S102A/S103P/S104F/H111F S31A & L6_IGKJ1*01 (Fab, V domains shown)
VH: B1 VH with S31A, S102A, S103P, H111F
VL: not shown
notes: Fab as for m1 (CH1 with His6/Flag tags, kappa CL); also called APFF S31A
B6: the ECL signal in experiment [14] stood at 176000; in experiment [15] it was 333; in experiment [16], 379; in experiment [17], 405; in experiment [18] it was 255; in experiment [19], 454. For the same molecule, the ECL signal in experiment [20] is 138000; in [21], 207; in experiment [22], 394; in [23], 398. Also, the Signal/Noise in experiment [24] came out at 530.

B7: Fab VH1-46_IGHD6-6*01_IGHJ1*01 S104R & L6_IGKJ1*01 (Fab, V domains shown)
VH: B1 VH with F104R
VL: not shown
notes: as for B1
For the molecule B7, the Signal/Noise in experiment [3] turned out to be 23.4; in experiment [4], 28.6.

B8: Fab VH1-46_IGHD6-6*01_IGHJ1*01 S102A/S103P/S104F/H111F T30A & L6_IGKJ1*01 (Fab, V domains shown)
VH: B1 VH with T30A, S102A, S103P, H111F
VL: not shown
notes: Fab as for m1 (CH1 with His6/Flag tags, kappa CL); also called APFF T30A
With B8, the ECL signal in experiment [14] amounted to 178000; in experiment [15], 270; in [16] it was 439; in [17] it was 356; in experiment [18] it was 275; in experiment [19], 428. Further, the ECL signal in experiment [20] came to 140000; in experiment [21], 272; in [22] it was 427; in experiment [23], 413. Also, the Signal/Noise in experiment [24] was 503.

B9: Fab VH1-46_IGHD6-6*01_IGHJ1*01 S104F & L6_IGKJ1*01 (Fab, V domains shown)
VH: B1 VH
VL: not shown
notes: Fab made in E. coli; The heavy chain variable region was cloned into Plasmid A (CH1, His6 and Flag tags) and the kappa light chain variable region into Plasmid C (kappa CL)
Take B9: the ECL signal/noise ratio in experiment [6] worked out at 1.7; in experiment [9], 195; in experiment [11], 2; in experiment [12], 1.6; in experiment [25], 0.6; in experiment [26] it was 15.3. Further, the values for the ECL signal/noise ratio in [27] and in [28] were 0.8 and 0.6, respectively.
